In patent US6469141B1, “D1-like dopamine receptor activity modifying protein” (Medical College of Georgia Research Institute Inc., priority 1998, dated 2002):

Tests used:
[1] = molecular target: T1, GSTD1 (C-terminal 81 residues of hD1 receptor) (Homo sapiens, UniProt P21728); experiment: S-agarose pull-down assay with GSTD1 fusion protein; type: binding; settings: immunoblot with D1 receptor antibodies
T1 construct: C-terminal 81 amino acids of the hD1 receptor (residues 365-446); made in house; host or cells: S-Calcyon: BL21(DE3) E. coli
T1 sequence (P21728 365-446): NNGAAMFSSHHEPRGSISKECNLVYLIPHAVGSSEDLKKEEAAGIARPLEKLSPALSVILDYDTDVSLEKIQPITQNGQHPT
Description: For pull-down assays, a 550 bp Nco I-Bgl II fragment from pACT-Calcyon was subcloned into pET30a (Novagen, Madison, Wis.) to produce the S-Calcyon fusion protein containing residues 93-217 of the predicted Calcyon protein as well as an N-terminal tag composed of the 15 residue S peptide of ribonuclease S (Richards, F. M., et al., The Enzymes. ed.: Boyer, P. D., Academic Press, N.Y., pp. 647-806 (1971)). The S-β-galactosidase fusion protein was composed of bacterial β-galactosidase protein tagged at its N-terminus with the S peptide. Fusion proteins were induced in BL2I(DE3) E. coli with IPTG, and coupled to S-agarose resin (Novagen, Madison, Wis.) by incubating soluble fractions of bacterial lysates with resin for 1 h at RT Following incubation, unbound proteins were eliminated by washing the resin three times in 50 volumes of 25 mM HEPES (pH 7.4), 50 mM NaCl. Interaction assays were performed with GSTD1 purified as described (Bergson, C., et al., J. Neurosci. 15:7821-36 (1995)) or solubilized lysates of D1 HEK293 cells in 25 mM HEPES (pH 7.4), 50 mM NaCl, 10% glycerol, 1% bovine serum albumin containing 0.5% NP-40. Peptidel 421-435 ([…]) (SEQ ID No. 3) and Peptide2 ([…]) (SEQ ID No. 4) were synthesized using an Applied Biosystems 430A Peptide Synthesizer using the FastMoc procedures and reagents supplied by Perkin-Elmer, Applied Biosystems division. […]

[2] = molecular target: T2, full-length D1 DA receptors (Homo sapiens, UniProt P21728); experiment: S-agarose pull-down assay with D1 HEK293 cell lysates; type: binding; settings: detergent solubilized D1 HEK293 lysates
T2 construct: expressed in transfected cells; host or cells: D1 HEK293 cell lysate (receptor); BL21(DE3) E. coli (S-Calcyon)
T2 sequence (P21728 whole entry): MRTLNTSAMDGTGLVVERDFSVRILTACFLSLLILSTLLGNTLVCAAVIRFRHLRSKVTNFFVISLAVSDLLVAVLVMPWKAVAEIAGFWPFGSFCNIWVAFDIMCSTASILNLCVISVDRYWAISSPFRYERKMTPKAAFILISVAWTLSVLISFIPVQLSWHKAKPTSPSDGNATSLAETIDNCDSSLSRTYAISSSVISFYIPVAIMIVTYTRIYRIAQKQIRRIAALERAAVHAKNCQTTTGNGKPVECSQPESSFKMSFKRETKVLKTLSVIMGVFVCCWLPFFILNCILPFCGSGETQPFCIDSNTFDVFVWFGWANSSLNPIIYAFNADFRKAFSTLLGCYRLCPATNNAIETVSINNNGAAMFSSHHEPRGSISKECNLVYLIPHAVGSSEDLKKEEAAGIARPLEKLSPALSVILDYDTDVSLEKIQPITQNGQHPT
Description: For pull-down assays, a 550 bp Nco I-Bgl II fragment from pACT-Calcyon was subcloned into pET30a (Novagen, Madison, Wis.) to produce the S-Calcyon fusion protein containing residues 93-217 of the predicted Calcyon protein as well as an N-terminal tag composed of the 15 residue S peptide of ribonuclease S (Richards, F. M., et al., The Enzymes. ed.: Boyer, P. D., Academic Press, N.Y., pp. 647-806 (1971)). The S-β-galactosidase fusion protein was composed of bacterial β-galactosidase protein tagged at its N-terminus with the S peptide. Fusion proteins were induced in BL2I(DE3) E. coli with IPTG, and coupled to S-agarose resin (Novagen, Madison, Wis.) by incubating soluble fractions of bacterial lysates with resin for 1 h at RT Following incubation, unbound proteins were eliminated by washing the resin three times in 50 volumes of 25 mM HEPES (pH 7.4), 50 mM NaCl. […]
A human embryonic kidney (HEK) 293 cell line, designated D1 HEK293, that stably expresses hD1 receptors was used to test the ability of S-Calcyon to interact with full-length D1 DA receptors. […] Proteins retained by the S-tagged target polypeptides were analyzed by immunoblotting with D1 receptor antibodies as described above. […]

[3] = binding of 3H-labeled phospholipid vesicles to resin-bound S-Calcyon; settings: 25 μl S-agarose resin, one hour, room temperature
Method: FIG. 4 is a graph showing that calcyon's cytoplasmic domain binds PIP2. S-Calcyon bound to 25 μl of S-agarose resin, or 25 μl of S-agarose resin only was incubated for one hour at room temperature with phospholipid vesicles containing phosphotidylcholine (PC), phosphotidylethanolamine (PE), or PC, PE, and PIP2. Both types of vesicles were radioactively labeled with equivalent amounts of ^3H-phosphatidylcholine. Following incubation, resins were washed three times with ten volumes of buffer (20 mM hepes, pH 7.4), and amounts of bound phospholipid determined by liquid scintillation counting. Results are reported as percent of input radiolabel precipitated. Bars represent average value obtained in three independent assays with standard error of the mean.
Tests were conducted to determine whether Calcyon can bind PIP2 using the S-Calcyon fusion protein. S-Calcyon contains the predicted cytoplasmic domain of Calcyon (residues 93-217) preceded by an ‘S’ tag (for coupling to S-agarose resin). […] Following incubation, resin was washed three times with ten volumes of buffer (20 mM Hepes, pH 7.4), and amounts of bound phospholipid were determined by liquid scintillation counting. […] Results are reported as percent of input radiolabel precipitated, bars represent the standard error of the mean of each value determined in triplicate. […]

pull-down of full-length D1 receptor by resin-immobilized S-tagged protein [2]: Bands of similar size were also present
precipitation of PIP2 containing vesicles vs vesicles of PC and PE only [3]: more than five times more effectively
B1: S-Calcyon: fusion protein containing residues 93-217 of Calcyon with N-terminal 15 residue S peptide tag (protein)
chain: KETAAAKFERQHMDSMALLGCVLIMYKAIWYDQFTCPDGFLLRHKICTPLTLEMYYTEMDPERHRSILAAIGAYPLSRKHGTETPAAWGDGYRAAKEERKGPTQAGAAAAATEPPGKPSAKAEKEAARKAAGSAAPPPAQ
pull-down of GSTD1 by resin-immobilized S-tagged protein [1]: A D1 antibody reactive band of similar size was present
